According to US20210228499A1 (DUKE UNIVERSITY, published 2021):

Tests used:
[1] = target: T1, mouse GPR37 (native, on peritoneal macrophages and in tissues of wild-type mice) (mouse, UniProt Q9QY42 27-600); experiment: cell-based or functional assay
T1 sequence (looked up): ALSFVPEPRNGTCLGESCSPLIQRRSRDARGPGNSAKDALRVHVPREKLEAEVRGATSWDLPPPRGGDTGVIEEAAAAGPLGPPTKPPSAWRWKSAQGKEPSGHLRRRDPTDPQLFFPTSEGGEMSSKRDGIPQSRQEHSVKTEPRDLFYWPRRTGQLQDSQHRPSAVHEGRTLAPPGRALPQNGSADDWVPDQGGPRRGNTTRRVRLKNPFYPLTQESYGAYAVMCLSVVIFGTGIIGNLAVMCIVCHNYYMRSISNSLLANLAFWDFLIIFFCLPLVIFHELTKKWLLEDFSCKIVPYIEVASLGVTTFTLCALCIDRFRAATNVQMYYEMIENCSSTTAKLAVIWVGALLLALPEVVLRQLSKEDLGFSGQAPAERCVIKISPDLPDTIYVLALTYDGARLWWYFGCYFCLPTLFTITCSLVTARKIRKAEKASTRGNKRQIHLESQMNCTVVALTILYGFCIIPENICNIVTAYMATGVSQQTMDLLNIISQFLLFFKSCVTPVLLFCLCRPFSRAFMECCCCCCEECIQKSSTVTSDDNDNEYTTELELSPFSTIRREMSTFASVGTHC

[2] = target: T2, human GPR37 (hGPR37-V5, expressed in transfected HEK293 cells) (human, UniProt O15354 27-613); experiment: cell-based or functional assay
T2 sequence: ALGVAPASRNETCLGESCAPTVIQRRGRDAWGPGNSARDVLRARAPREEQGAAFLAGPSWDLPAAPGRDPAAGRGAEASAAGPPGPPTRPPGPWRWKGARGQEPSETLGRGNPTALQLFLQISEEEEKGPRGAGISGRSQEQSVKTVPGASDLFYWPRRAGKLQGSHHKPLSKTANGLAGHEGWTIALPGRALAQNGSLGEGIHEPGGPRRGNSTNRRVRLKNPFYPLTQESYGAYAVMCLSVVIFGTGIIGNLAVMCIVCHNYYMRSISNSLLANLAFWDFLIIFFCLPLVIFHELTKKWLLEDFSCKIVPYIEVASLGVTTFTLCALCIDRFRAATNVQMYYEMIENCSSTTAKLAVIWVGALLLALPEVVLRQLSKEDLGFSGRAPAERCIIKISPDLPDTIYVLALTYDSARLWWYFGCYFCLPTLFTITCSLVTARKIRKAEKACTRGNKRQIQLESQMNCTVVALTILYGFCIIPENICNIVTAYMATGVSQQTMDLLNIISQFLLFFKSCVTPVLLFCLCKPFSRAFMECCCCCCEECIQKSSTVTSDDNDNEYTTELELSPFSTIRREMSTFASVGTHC

Binder: TALIDNNATEEILY [prosaposin-derived 14-mer peptide (TX14)]
- EC50 of iCa^2+ increase in mouse peritoneal macrophages (Fluo-4AM calcium imaging) [1]: 0.302 µM
- EC50 of iCa^2+ increase in HEK293 cells transfected with human GPR37 (Fura-2AM calcium imaging) [2]: 0.407 µM
